The values that follow come from patent US8785135B2, “Mutant G-protein coupled receptors and methods for selecting them” (Heptares Therapeutics Limited, priority 2007, dated 2014).

B1: F358A: NTR point mutant (protein, UniProt P20789 1-424, looked up, variant F358A)
Neurotensin receptor type 1: MHLNSSVPQGTPGEPDAQPFSGPQSEMEATFLALSLSNGSGNTSESDTAGPNSDLDVNTDIYSKVLVTAIYLALFVVGTVGNSVTAFTLARKKSLQSLQSTVHYHLGSLALSDLLILLLAMPVELYNFIWVHHPWAFGDAGCRGYYFLRDACTYATALNVASLSVERYLAICHPFKAKTLMSRSRTKKFISAIWLASALLAIPMLFTMGLQNRSGDGTHPGGLVCTPIVDTATVKVVIQVNTFMSFLFPMLVISILNTVIANKLTVMVHQAAEQGRVCTVGTHNGLEHSTFNMTIEPGRVQALRHGVLVLRAVVIAFVVCWLPYHVRRLMFCYISDEQWTTFLFDFYHYFYMLTNALAYVSSAINPILYNLVSANFRQVFLSTLACLCPGWRHRRKKRPTFSRKPNSMSSNHAFSTSATRETLY
B2: C386A: NTR point mutant (protein, UniProt P20789 1-424, looked up, variant C386A)
Neurotensin receptor type 1: MHLNSSVPQGTPGEPDAQPFSGPQSEMEATFLALSLSNGSGNTSESDTAGPNSDLDVNTDIYSKVLVTAIYLALFVVGTVGNSVTAFTLARKKSLQSLQSTVHYHLGSLALSDLLILLLAMPVELYNFIWVHHPWAFGDAGCRGYYFLRDACTYATALNVASLSVERYLAICHPFKAKTLMSRSRTKKFISAIWLASALLAIPMLFTMGLQNRSGDGTHPGGLVCTPIVDTATVKVVIQVNTFMSFLFPMLVISILNTVIANKLTVMVHQAAEQGRVCTVGTHNGLEHSTFNMTIEPGRVQALRHGVLVLRAVVIAFVVCWLPYHVRRLMFCYISDEQWTTFLFDFYHYFYMLTNALFYVSSAINPILYNLVSANFRQVFLSTLAALCPGWRHRRKKRPTFSRKPNSMSSNHAFSTSATRETLY
B3: M181A: NTR point mutant (protein, UniProt P20789 1-424, looked up, variant M181A)
Neurotensin receptor type 1: MHLNSSVPQGTPGEPDAQPFSGPQSEMEATFLALSLSNGSGNTSESDTAGPNSDLDVNTDIYSKVLVTAIYLALFVVGTVGNSVTAFTLARKKSLQSLQSTVHYHLGSLALSDLLILLLAMPVELYNFIWVHHPWAFGDAGCRGYYFLRDACTYATALNVASLSVERYLAICHPFKAKTLASRSRTKKFISAIWLASALLAIPMLFTMGLQNRSGDGTHPGGLVCTPIVDTATVKVVIQVNTFMSFLFPMLVISILNTVIANKLTVMVHQAAEQGRVCTVGTHNGLEHSTFNMTIEPGRVQALRHGVLVLRAVVIAFVVCWLPYHVRRLMFCYISDEQWTTFLFDFYHYFYMLTNALFYVSSAINPILYNLVSANFRQVFLSTLACLCPGWRHRRKKRPTFSRKPNSMSSNHAFSTSATRETLY
B4: G209A: NTR point mutant (protein, UniProt P20789 1-424, looked up, variant G209A)
Neurotensin receptor type 1: MHLNSSVPQGTPGEPDAQPFSGPQSEMEATFLALSLSNGSGNTSESDTAGPNSDLDVNTDIYSKVLVTAIYLALFVVGTVGNSVTAFTLARKKSLQSLQSTVHYHLGSLALSDLLILLLAMPVELYNFIWVHHPWAFGDAGCRGYYFLRDACTYATALNVASLSVERYLAICHPFKAKTLMSRSRTKKFISAIWLASALLAIPMLFTMALQNRSGDGTHPGGLVCTPIVDTATVKVVIQVNTFMSFLFPMLVISILNTVIANKLTVMVHQAAEQGRVCTVGTHNGLEHSTFNMTIEPGRVQALRHGVLVLRAVVIAFVVCWLPYHVRRLMFCYISDEQWTTFLFDFYHYFYMLTNALFYVSSAINPILYNLVSANFRQVFLSTLACLCPGWRHRRKKRPTFSRKPNSMSSNHAFSTSATRETLY
B5: S108A: NTR point mutant (protein, UniProt P20789 1-424, looked up, variant S108A)
Neurotensin receptor type 1: MHLNSSVPQGTPGEPDAQPFSGPQSEMEATFLALSLSNGSGNTSESDTAGPNSDLDVNTDIYSKVLVTAIYLALFVVGTVGNSVTAFTLARKKSLQSLQSTVHYHLGALALSDLLILLLAMPVELYNFIWVHHPWAFGDAGCRGYYFLRDACTYATALNVASLSVERYLAICHPFKAKTLMSRSRTKKFISAIWLASALLAIPMLFTMGLQNRSGDGTHPGGLVCTPIVDTATVKVVIQVNTFMSFLFPMLVISILNTVIANKLTVMVHQAAEQGRVCTVGTHNGLEHSTFNMTIEPGRVQALRHGVLVLRAVVIAFVVCWLPYHVRRLMFCYISDEQWTTFLFDFYHYFYMLTNALFYVSSAINPILYNLVSANFRQVFLSTLACLCPGWRHRRKKRPTFSRKPNSMSSNHAFSTSATRETLY
B6: H393A: NTR point mutant (protein, UniProt P20789 1-424, looked up, variant H393A)
Neurotensin receptor type 1: MHLNSSVPQGTPGEPDAQPFSGPQSEMEATFLALSLSNGSGNTSESDTAGPNSDLDVNTDIYSKVLVTAIYLALFVVGTVGNSVTAFTLARKKSLQSLQSTVHYHLGSLALSDLLILLLAMPVELYNFIWVHHPWAFGDAGCRGYYFLRDACTYATALNVASLSVERYLAICHPFKAKTLMSRSRTKKFISAIWLASALLAIPMLFTMGLQNRSGDGTHPGGLVCTPIVDTATVKVVIQVNTFMSFLFPMLVISILNTVIANKLTVMVHQAAEQGRVCTVGTHNGLEHSTFNMTIEPGRVQALRHGVLVLRAVVIAFVVCWLPYHVRRLMFCYISDEQWTTFLFDFYHYFYMLTNALFYVSSAINPILYNLVSANFRQVFLSTLACLCPGWRARRKKRPTFSRKPNSMSSNHAFSTSATRETLY
B7: I116A: NTR point mutant (protein, UniProt P20789 1-424, looked up, variant I116A)
Neurotensin receptor type 1: MHLNSSVPQGTPGEPDAQPFSGPQSEMEATFLALSLSNGSGNTSESDTAGPNSDLDVNTDIYSKVLVTAIYLALFVVGTVGNSVTAFTLARKKSLQSLQSTVHYHLGSLALSDLLALLLAMPVELYNFIWVHHPWAFGDAGCRGYYFLRDACTYATALNVASLSVERYLAICHPFKAKTLMSRSRTKKFISAIWLASALLAIPMLFTMGLQNRSGDGTHPGGLVCTPIVDTATVKVVIQVNTFMSFLFPMLVISILNTVIANKLTVMVHQAAEQGRVCTVGTHNGLEHSTFNMTIEPGRVQALRHGVLVLRAVVIAFVVCWLPYHVRRLMFCYISDEQWTTFLFDFYHYFYMLTNALFYVSSAINPILYNLVSANFRQVFLSTLACLCPGWRHRRKKRPTFSRKPNSMSSNHAFSTSATRETLY
B8: D113A: NTR point mutant (protein, UniProt P20789 1-424, looked up, variant D113A)
Neurotensin receptor type 1: MHLNSSVPQGTPGEPDAQPFSGPQSEMEATFLALSLSNGSGNTSESDTAGPNSDLDVNTDIYSKVLVTAIYLALFVVGTVGNSVTAFTLARKKSLQSLQSTVHYHLGSLALSALLILLLAMPVELYNFIWVHHPWAFGDAGCRGYYFLRDACTYATALNVASLSVERYLAICHPFKAKTLMSRSRTKKFISAIWLASALLAIPMLFTMGLQNRSGDGTHPGGLVCTPIVDTATVKVVIQVNTFMSFLFPMLVISILNTVIANKLTVMVHQAAEQGRVCTVGTHNGLEHSTFNMTIEPGRVQALRHGVLVLRAVVIAFVVCWLPYHVRRLMFCYISDEQWTTFLFDFYHYFYMLTNALFYVSSAINPILYNLVSANFRQVFLSTLACLCPGWRHRRKKRPTFSRKPNSMSSNHAFSTSATRETLY
B9: R392A: NTR point mutant (protein, UniProt P20789 1-424, looked up, variant R392A)
Neurotensin receptor type 1: MHLNSSVPQGTPGEPDAQPFSGPQSEMEATFLALSLSNGSGNTSESDTAGPNSDLDVNTDIYSKVLVTAIYLALFVVGTVGNSVTAFTLARKKSLQSLQSTVHYHLGSLALSDLLILLLAMPVELYNFIWVHHPWAFGDAGCRGYYFLRDACTYATALNVASLSVERYLAICHPFKAKTLMSRSRTKKFISAIWLASALLAIPMLFTMGLQNRSGDGTHPGGLVCTPIVDTATVKVVIQVNTFMSFLFPMLVISILNTVIANKLTVMVHQAAEQGRVCTVGTHNGLEHSTFNMTIEPGRVQALRHGVLVLRAVVIAFVVCWLPYHVRRLMFCYISDEQWTTFLFDFYHYFYMLTNALFYVSSAINPILYNLVSANFRQVFLSTLACLCPGWAHRRKKRPTFSRKPNSMSSNHAFSTSATRETLY
B10: K397A: NTR point mutant (protein, UniProt P20789 1-424, looked up, variant K397A)
Neurotensin receptor type 1: MHLNSSVPQGTPGEPDAQPFSGPQSEMEATFLALSLSNGSGNTSESDTAGPNSDLDVNTDIYSKVLVTAIYLALFVVGTVGNSVTAFTLARKKSLQSLQSTVHYHLGSLALSDLLILLLAMPVELYNFIWVHHPWAFGDAGCRGYYFLRDACTYATALNVASLSVERYLAICHPFKAKTLMSRSRTKKFISAIWLASALLAIPMLFTMGLQNRSGDGTHPGGLVCTPIVDTATVKVVIQVNTFMSFLFPMLVISILNTVIANKLTVMVHQAAEQGRVCTVGTHNGLEHSTFNMTIEPGRVQALRHGVLVLRAVVIAFVVCWLPYHVRRLMFCYISDEQWTTFLFDFYHYFYMLTNALFYVSSAINPILYNLVSANFRQVFLSTLACLCPGWRHRRKARPTFSRKPNSMSSNHAFSTSATRETLY
B11: Nag7m: NTR mutant F358A+A86L+I260A+F342A (protein)
chain: TSESDTAGPNSDLDVNTDIYSKVLVTAIYLALFVVGTVGNSVTLFTLARKKSLQSLQSTVHYHLGSLALSDLLILLLAMPVELYNFIWVHHPWAFGDAGCRGYYFLRDACTYATALNVASLSVERYLAICHPFKAKTLMSRSRTKKFISAIWLASALLAIPMLFTMGLQNRSGDGTHPGGLVCTPIVDTATVKVVIQVNTFMSFLFPMLVISILNTVAANKLTVMVHQAAEQGRVCTVGTHNGLEHSTFNMTIEPGRVQALRHGVLVLRAVVIAFVVCWLPYHVRRLMFCYISDEQWTTALFDFYHYFYMLTNALAYVSSAINPILYNLVSANFRQVFLSTLACLCPGWRHRRKKRPTFSRKPNSMSSNHAFSTSATRETLY

The first series is described as follows: Thermostability of NTR and mutants (3H-neurotensin binding). The series is classed as physicochemical. Particulars: Ligand(+) format. The procedure:
FIG. 12 Flow chart showing the two different assay formats of ligand (+) and ligand (−) used to determine receptor thermostability.
• 1. 340 site-directed mutants have been made between residues 61-400 of NTR. • 2. Initially, all of these mutants were assayed for thermostability using an assay measuring ^3H-neurotensin (agonist) binding after the heating step. […] Mutants tested for thermostability by heating in the absence of the agonist were re-tested using a slightly different assay where the mutants were heated in the presence of ^3H-neurotensin (Ligand(+) format in FIG. 12). […] All of these also have increased thermostability. • 5. Preferred combinations are • a. Nag7m F358A+A86L+I260A+F342A Tm 51° C. (neurotensin bound) • b. Nag7n F358A+H103A+I260A+F342A Tm 51° C. (neurotensin bound) • Wildtype NTR has a Tm of 35° C. with neurotensin bound.
Regarding B1, the “thermostability, heated in the presence of 3H-neurotensin” value is reported as “improved thermostability”.

The same series, now with this note: heated in the absence of the agonist.
As for B2, the “thermostability, 3H-neurotensin (agonist) binding after the heating step” value (shortened to “thermostability, 3H-neurotensin”) is reported as “small but significant increase in thermostability”. Regarding B3, the “thermostability, 3H-neurotensin” value is given as “small but significant increase in thermostability”. For the molecule B4, the “thermostability, 3H-neurotensin” value was “small but significant increase in thermostability”. Turning to B5, the “thermostability, 3H-neurotensin” value is “small but significant increase in thermostability”. For B6, the “thermostability, 3H-neurotensin” value is on record as “small but significant increase in thermostability”. Same read-out and setting: then B7, with “small but significant increase in thermostability”; and B1, with “small but significant increase in thermostability”. Take B8: the “thermostability, 3H-neurotensin” value was “small but significant increase in thermostability”. As to B9, the “thermostability, 3H-neurotensin” value is “small but significant increase in thermostability”.

With B10, the “thermostability, 3H-neurotensin” value is listed as “small but significant increase in thermostability”.

The series is the same for the next values; noted with them: neurotensin bound.
Consider B11, for which the Tm amounted to 51 °C.
